Data reported in PMC6155126.

Columns and labels:
[1] = biological target: PAXX (cleaved) (Homo sapiens, UniProt Q9BUH6 1-204); assay: EMSA; 0.5 µM PAXX; EMSA: 50 mM Tris-HCl pH 7.5, 100 mM KCl, 2.5 mM MgCl2, 1 mM DTT, 4% glycerol, 0.05% Triton X-100, 0.1 mg/ml BSA, 10-20 nM DNA, 30 min at 25 °C; 4-5% native PAGE, 0.5x TBE, 4 °C; settings: protein: recombinant; tags: GST tag cleaved (PreScission); chain copies: 2; label: 5' IRDye 700 on one strand; 5-nt gap
[2] = biological target: Pol λ WT (Homo sapiens, UniProt Q9UGP5 1-575); assay: EMSA; 40 or 200 nM Pol λ; EMSA: 50 mM Tris-HCl pH 7.5, 100 mM KCl, 2.5 mM MgCl2, 1 mM DTT, 4% glycerol, 0.05% Triton X-100, 0.1 mg/ml BSA, 10-20 nM DNA, 30 min at 25 °C; 4-5% native PAGE, 0.5x TBE, 4 °C; settings: protein: recombinant; tags: FLAG; label: 5' IRDye 700 on one strand; 5-nt gap

B1: 5nt-gapped dsDNA 30-mer (dsDNA)
DNA 1: ACTGGCCGTCGTTCTATTGTACTCACTGTGATC
DNA 2: GATCACAGTGAGTAC
DNA 3: AACGACGGCCAGT
B1: no binding [1]; binds [2].
